Assay results reported in patent US9539289B2, “Immunostimulatory compositions and methods of manufacture” (APIMED MEDICAL HONEY LIMITED, priority 2012, dated 2017).

Tests used:
[1] = tested on: monocyte cell line; assay: TNF-α response of a monocyte cell culture after 4 hours of treatment (Examples 3, 5-8); format: cell-based; conditions: 100 ng/ml dose
Protocol: The immunostimulatory effect was then tested using a variety of samples. Prior to the trial a monocyte cell culture was produced in order to eliminate any natural variation errors. The monocyte culture was then stimulated using a variety of agents and TNF-α concentration measured after 4 hours of treatment with the various reagents.
LPS was used as a positive control being a known and strongly significant stimulant. Cells alone were used as a negative control.
The immunostimulatory effect was tested further using a variety of samples including royal jelly. Prior to the trial a monocyte cell culture was produced in order to eliminate any natural variation errors. The monocyte culture was then stimulated using a variety of agents and TNF-α concentration measured after 4 hours of treatment with the various reagents.
The immunostimulatory effect was tested further using a variety of honey derived AGP compounds and apisimin. […] The monocyte culture was then stimulated using a variety of agents and TNF-α concentration measured after 4 hours of treatment with the various reagents.
The immunostimulatory effect was tested further using a honey derived AGP compound, apisimin and Polymyxin B acting as an LPS inhibitor. […] The monocyte culture was then stimulated using a variety of agents and TNF-α concentration measured after 4 hours of treatment with the various reagents. […]

[2] = molecular target: T1, apisimin (Apis mellifera, UniProt Q8ISL8); assay: Dot blot assay of apisimin self binding versus insulin and bovine albumin (Example 1, FIG. 1); conditions: darker colour means greater binding
T1 sequence (Q8ISL8 25-78): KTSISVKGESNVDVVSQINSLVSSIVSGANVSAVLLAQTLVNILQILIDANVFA
Protocol: FIG. 1 illustrates the results of a dot blot assay to test the self binding properties of apisimin against two other proteins not know to be self binding being insulin and bovine albumin. 1=apisimin, 2=insulin, 3=bovine albumin. The darker the colour the greater the degree of binding;
An experiment was conducted to confirm the self-binding nature of apisimin versus other peptides being insulin and bovine albumin.

## lipopolysaccharide [LPS]
[1]
  TNF-α response: approximately 1700 μg/ml

## albumin: bovine albumin, comparison protein not known to be self binding
[2]
  self binding (dot blot colour): weak or not self binding

## insulin: comparison protein not known to be self binding
[2]
  self binding (dot blot colour): weak or not self binding
